Measured values taken from paper PMC7666136.

Assays:
[1] = molecular target: T1, eGFP-53BP1 (wild-type TP53-binding protein 1 tagged with enhanced green fluorescent protein), Q12888; assay: cross-pair correlation function (cross-pCF) analysis, two-colour fluorescence cross-correlation; two-channel line scans in live DIvA cells co-transfected with eGFP- and mKate2-tagged copies of the same 53BP1 construct, treated with 4OHT for 60 min; dimer fraction from cross pCF0 against pCF0, corrected for spectral bleed through; settings: remark: other sources report otherwise
T1 chain: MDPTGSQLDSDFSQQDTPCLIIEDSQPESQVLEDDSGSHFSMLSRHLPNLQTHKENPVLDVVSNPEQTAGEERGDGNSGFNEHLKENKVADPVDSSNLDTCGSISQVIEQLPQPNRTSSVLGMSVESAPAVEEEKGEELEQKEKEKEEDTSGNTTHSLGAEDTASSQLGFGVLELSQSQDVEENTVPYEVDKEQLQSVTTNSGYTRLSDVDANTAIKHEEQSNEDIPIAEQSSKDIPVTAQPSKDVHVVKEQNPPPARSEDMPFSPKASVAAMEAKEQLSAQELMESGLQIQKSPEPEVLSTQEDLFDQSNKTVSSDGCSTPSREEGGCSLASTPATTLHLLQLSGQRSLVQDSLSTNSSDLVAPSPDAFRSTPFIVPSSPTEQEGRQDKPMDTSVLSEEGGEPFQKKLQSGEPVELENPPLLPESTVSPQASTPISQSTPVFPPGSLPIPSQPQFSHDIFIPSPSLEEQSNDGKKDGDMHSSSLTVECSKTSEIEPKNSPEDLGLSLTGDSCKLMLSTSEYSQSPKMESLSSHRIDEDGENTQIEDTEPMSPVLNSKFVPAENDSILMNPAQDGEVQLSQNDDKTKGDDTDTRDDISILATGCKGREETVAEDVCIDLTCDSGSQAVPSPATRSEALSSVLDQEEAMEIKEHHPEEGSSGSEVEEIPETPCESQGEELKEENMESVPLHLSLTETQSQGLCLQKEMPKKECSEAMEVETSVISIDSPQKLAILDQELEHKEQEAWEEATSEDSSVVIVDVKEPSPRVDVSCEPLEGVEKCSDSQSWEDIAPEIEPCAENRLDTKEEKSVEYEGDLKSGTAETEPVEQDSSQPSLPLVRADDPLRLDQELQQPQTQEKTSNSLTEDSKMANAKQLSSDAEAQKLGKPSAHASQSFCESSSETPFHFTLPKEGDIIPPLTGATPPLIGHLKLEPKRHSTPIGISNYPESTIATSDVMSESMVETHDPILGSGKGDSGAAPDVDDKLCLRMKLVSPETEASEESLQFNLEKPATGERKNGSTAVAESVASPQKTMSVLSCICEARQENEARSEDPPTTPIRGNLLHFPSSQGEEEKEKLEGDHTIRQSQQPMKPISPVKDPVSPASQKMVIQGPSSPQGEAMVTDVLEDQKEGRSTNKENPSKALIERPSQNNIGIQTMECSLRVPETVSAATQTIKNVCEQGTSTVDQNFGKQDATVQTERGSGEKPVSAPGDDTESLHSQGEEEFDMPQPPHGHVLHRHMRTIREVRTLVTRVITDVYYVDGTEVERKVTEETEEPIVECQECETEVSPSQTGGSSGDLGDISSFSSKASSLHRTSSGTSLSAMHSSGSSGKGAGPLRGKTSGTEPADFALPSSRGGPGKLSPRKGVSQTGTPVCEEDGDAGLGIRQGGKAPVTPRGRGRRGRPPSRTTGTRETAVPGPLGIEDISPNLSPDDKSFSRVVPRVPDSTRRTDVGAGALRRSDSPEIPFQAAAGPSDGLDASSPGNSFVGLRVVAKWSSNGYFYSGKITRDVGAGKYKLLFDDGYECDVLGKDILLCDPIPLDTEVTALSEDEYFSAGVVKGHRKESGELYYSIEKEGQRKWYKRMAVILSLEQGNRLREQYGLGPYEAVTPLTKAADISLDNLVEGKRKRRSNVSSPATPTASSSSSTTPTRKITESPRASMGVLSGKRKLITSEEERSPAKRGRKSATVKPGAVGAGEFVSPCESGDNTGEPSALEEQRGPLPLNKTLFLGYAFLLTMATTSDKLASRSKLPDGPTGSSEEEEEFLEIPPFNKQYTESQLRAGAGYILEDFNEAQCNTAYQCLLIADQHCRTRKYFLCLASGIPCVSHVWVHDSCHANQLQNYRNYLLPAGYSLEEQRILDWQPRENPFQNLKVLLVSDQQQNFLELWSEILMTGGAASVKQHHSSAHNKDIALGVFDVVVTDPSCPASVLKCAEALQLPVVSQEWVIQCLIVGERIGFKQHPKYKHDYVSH

[2] = molecular target: T1, eGFP-53BP1 (wild-type TP53-binding …); assay: Number and Brightness (NB) analysis of fluorescence fluctuation spectroscopy; frame scans in nuclei of live DIvA cells expressing eGFP-tagged 53BP1 constructs, 37 °C, brightness windows calibrated on free eGFP (B monomer 1.15, dimer 1.30, oligomer >1.60); before and 30-60 min after 4OHT induction of DSBs; also after knockdown of endogenous 53BP1; settings: remark: other sources report otherwise

- fraction of 53BP1 dimer (cross pCF0 against pCF0) [1]: 31%
- fraction of dimer (NB, percent of pixels) [2]: 26%
- fraction of oligomer (NB, percent of pixels) [2]: 2%
- stoichiometry N [2]: 2
B1: eGFP-53BP1 (wild-type TP53-binding protein 1 tagged with enhanced green fluorescent protein), Q12888 1-1972 (natural protein)
chain: T1 chain
